{
  "source": "patent US20250051437A1",
  "about": "(University of California, published 2025)",
  "binders": {"B1": {"name": "humanized anti-CDH17 antibody 07-0663-h7 (antibody, human IgG1, kappa, V domains shown)", "VH": "QVQLVQSGAEVKKPGSSVKISCKVSGYTFTDHTIHWMRQAPGQGLEWIGYIFPRDDIVVYAQKFQGRATLTADKSTSTAYMELSSLRSEDTAVYYCARPPYYYSRNFYFDYWGQGTTLTVSS", "VL": "DIQMTQSPSSLSASVGDRVTITCRVSSIISSSKLHWYQQKPGKAPKPLIYGTSTLASGVPSRFSGSGSGTDYTLTISSLQPEDFATYYCQQWSNYPFTFGQGTKLEIKR", "notes": "Human IgG1 / kappa"}},
  "key": {"[1]": {"biological_target": "T1, human CDH17-mGFP fusion protein overexpressed on HEK293T cells (clone G11) (human, UniProt Q12864 23-832)", "T1 construct": "also called HEK293T CDH17mGFP Clone G11; HEK293T Human CDH17mGFP G11; not shown: mGFP fluorescent protein fused to CDH17", "assay": "KinExA, cell-based, HEK293T human CDH17mGFP G11 (same value as r12)", "description": "The cell-based antibody affinity (KD) of the anti-CDH17 antibodies was measured by KinExA 4000 (Sapidyne Instrument, Boise, Idaho). Briefly, HEK293T overexpressing CDH17-fluorescent protein fusion (i.e., human CDH17-mGFP, monkey CDH17-mGFP, mouse CDH17-mGFP or rat CDH17-mGFP) were detached with Versene and equilibrated with either 50 pM, 200 pM, 20 nM, or 50 nM antibody in 2% FBS/DMEM at 4° C. overnight. The cell concentration started at 5×10⁶ cells/mL or 1×10⁷ cells/mL and 2-fold serial dilutions were performed up to 10 points. The next day, the cells were centrifuged at 1500 rpm for 10 min and the supernatants were saved. […] In contrast, while the humanized anti-CDH17 antibody, 07-0653-h43, fails to bind mouse CDH17 protein, it binds rat CDH17 protein equally well as to human and monkey CDH17 protein such that its Kp is less than about 1 nM for human, monkey and rat CDH17 proteins with overlapping 95% confidence interval values."}, "[2]": {"biological_target": "T2, biotinylated 15-mer peptide 20 of the CDH17 ECD peptide scan (human, also: biotin label, position not given here)", "T2 peptide": "LDANGIIVEGPVPIT", "assay": "titration ELISA on biotinylated peptide captured on streptavidin plates", "description": "For the ELISA, 1 μl of each biotinylated peptide plus 99 μl of peptide coating buffer (40% DMSO and 0.05% Tween20 in PBS) was added to a streptavidin-coated microtiter plate well. The plate was incubated overnight at 4° C. without shaking. The plate was then washed 4 times with 300 μl washing buffer (PBS with 0.05% Tween20). 200 μl blocking buffer (PBS with 400 μM biotin and 20% sucrose) was added to each well and the plate incubated for 30 min at room temperature without shaking. After 3 times washing with washing buffer, 300 μl of SuperBlock T20 (TBS) Blocking Buffer (Thermo Scientific, #37536) was applied per well and incubated at room temperature for 1 hour. […]"}, "Peptide 1 [3]": {"biological_target": "T3, Peptide 1 (also: biotin label, position not given here)", "T3 construct": "also called Original 7-mer peptide; LDANGII", "T3 peptide": "LDANGII", "assay": "titration ELISA, antibody 1500 to 0.157 ng/ml, biotinylated peptide on streptavidin-coated plate"}, "Peptide 2 [4]": {"biological_target": "T4, Peptide 2 (also: biotin label, position not given here)", "T4 construct": "LDANGII with the first residue L changed to A; also called ADANGII", "T4 peptide": "ADANGII", "assay": "titration ELISA, antibody 1500 to 0.157 ng/ml, biotinylated peptide on streptavidin-coated plate"}, "Peptide 7 [5]": {"biological_target": "T5, Peptide 7 (also: biotin label, position not given here)", "T5 construct": "LDANGII with the seventh residue I changed to A; also called LDANGIA", "T5 peptide": "LDANGIA", "assay": "titration ELISA, antibody 1500 to 0.157 ng/ml, biotinylated peptide on streptavidin-coated plate"}, "Peptide 8 [6]": {"biological_target": "T6, Peptide 8 (also: biotin label, position not given here)", "T6 construct": "LDANGII with the third residue A changed to G; also called LDGNGII", "T6 peptide": "LDGNGII", "assay": "titration ELISA, antibody 1500 to 0.157 ng/ml, biotinylated peptide on streptavidin-coated plate"}, "[7]": {"biological_target": "T7, human cadherin-17 (CDH17), endogenously expressed on human cancer cell lines (LS513, SNU-C1, PaTu8988s, … (human, UniProt Q12864 23-832))", "T7 construct": "also called LS513 (Colon, CDH17+); HPAF2", "assay": "flow cytometry (iQue) on LS513 cells, 0.2 µg Ab"}, "[8]": {"biological_target": "T7, human cadherin-17 (CDH17), endogenously …", "assay": "flow cytometry (iQue) on PATU8988S cells, 1 µg Ab"}, "[9]": {"biological_target": "T7, human cadherin-17 (CDH17), endogenously …", "assay": "flow cytometry (iQue) on LS513 cells, 1 µg Ab"}, "Peptide 1 [10]": {"biological_target": "T3, Peptide 1", "assay": "titration ELISA, biotinylated peptide on streptavidin-coated plate"}, "Peptide 4": {"biological_target": "T8, Peptide 4 (also: biotin label, position not given here)", "T8 construct": "LDANGII with the fourth residue N changed to A; also called LDAAGII", "T8 peptide": "LDAAGII", "assay": "titration ELISA, biotinylated peptide on streptavidin-coated plate"}, "Peptide 2 [11]": {"biological_target": "T4, Peptide 2", "assay": "titration ELISA, biotinylated peptide on streptavidin-coated plate"}, "Peptide 7 [12]": {"biological_target": "T5, Peptide 7", "assay": "titration ELISA, biotinylated peptide on streptavidin-coated plate"}, "Peptide 6": {"biological_target": "T9, Peptide 6 (also: biotin label, position not given here)", "T9 construct": "LDANGII with the sixth residue I changed to A; also called LDANGAI", "T9 peptide": "LDANGAI", "assay": "titration ELISA, biotinylated peptide on streptavidin-coated plate"}, "Peptide 8 [13]": {"biological_target": "T6, Peptide 8", "assay": "titration ELISA, biotinylated peptide on streptavidin-coated plate"}, "Peptide 5": {"biological_target": "T10, Peptide 5 (also: biotin label, position not given here)", "T10 construct": "LDANGII with the fifth residue G changed to A; also called LDANAII", "T10 peptide": "LDANAII", "assay": "titration ELISA, biotinylated peptide on streptavidin-coated plate"}, "Peptide 3": {"biological_target": "T11, Peptide 3 (also: biotin label, position not given here)", "T11 construct": "LDANGII with the second residue D changed to A; also called LAANGII", "T11 peptide": "LAANGII", "assay": "titration ELISA, biotinylated peptide on streptavidin-coated plate"}},
  "note": "Where no end group is shown, it is not given here.",
  "data": [
    {"binder": "B1", "values": [
      {"measurement": "Kd", "setting": "[1]", "result": 0.152, "unit": "nM"},
      {"measurement": "binding result", "setting": "[2]", "result": "binds"},
      {"measurement": "EC50", "setting": "Peptide 1 [3]", "result": 0.16, "unit": "nM"},
      {"measurement": "EC50", "setting": "Peptide 2 [4]", "result": 0.126, "unit": "nM"},
      {"measurement": "EC50", "setting": "Peptide 7 [5]", "result": 0.117, "unit": "nM"},
      {"measurement": "EC50", "setting": "Peptide 8 [6]", "result": 2.98, "unit": "nM"},
      {"measurement": "Antibody Binding Activity by Flow iQue", "setting": "[7]", "result": "2.24e+06"},
      {"measurement": "Antibody Binding Activity by Flow iQue", "setting": "[8]", "result": 101000},
      {"measurement": "Antibody Binding Activity by Flow iQue", "setting": "[9]", "result": "2.3e+06"},
      {"measurement": "ELISA reading at 1500 ng/ml antibody, lower of two rows", "setting": "Peptide 1 [10]", "result": 2.76},
      {"measurement": "ELISA reading at 1500 ng/ml antibody, upper of two rows", "setting": "Peptide 1 [10]", "result": 3.1},
      {"measurement": "ELISA reading at 1500 ng/ml antibody, lower of two rows", "setting": "Peptide 4", "result": 0.038},
      {"measurement": "ELISA reading at 1500 ng/ml antibody, upper of two rows", "setting": "Peptide 4", "result": 0.0379},
      {"measurement": "binding result", "setting": "Peptide 4", "result": "no binding (tested: 1500 ng/ml)"},
      {"measurement": "ELISA reading at 1500 ng/ml antibody, lower of two rows", "setting": "Peptide 2 [11]", "result": 2.71},
      {"measurement": "ELISA reading at 1500 ng/ml antibody, upper of two rows", "setting": "Peptide 2 [11]", "result": 2.65},
      {"measurement": "ELISA reading at 1500 ng/ml antibody, lower of two rows", "setting": "Peptide 7 [12]", "result": 2.74},
      {"measurement": "ELISA reading at 1500 ng/ml antibody, upper of two rows", "setting": "Peptide 7 [12]", "result": 2.8},
      {"measurement": "ELISA reading at 1500 ng/ml antibody, lower of two rows", "setting": "Peptide 6", "result": 0.0357},
      {"measurement": "ELISA reading at 1500 ng/ml antibody, upper of two rows", "setting": "Peptide 6", "result": 0.0371},
      {"measurement": "binding result", "setting": "Peptide 6", "result": "no binding (tested: 1500 ng/ml)"},
      {"measurement": "ELISA reading at 1500 ng/ml antibody, lower of two rows", "setting": "Peptide 8 [13]", "result": 2.14},
      {"measurement": "ELISA reading at 1500 ng/ml antibody, upper of two rows", "setting": "Peptide 8 [13]", "result": 2.1},
      {"measurement": "ELISA reading at 1500 ng/ml antibody, lower of two rows", "setting": "Peptide 5", "result": 0.0383},
      {"measurement": "ELISA reading at 1500 ng/ml antibody, upper of two rows", "setting": "Peptide 5", "result": 0.0394},
      {"measurement": "binding result", "setting": "Peptide 5", "result": "no binding (tested: 1500 ng/ml)"},
      {"measurement": "ELISA reading at 1500 ng/ml antibody, lower of two rows", "setting": "Peptide 3", "result": 0.0369},
      {"measurement": "ELISA reading at 1500 ng/ml antibody, upper of two rows", "setting": "Peptide 3", "result": 0.0377},
      {"measurement": "binding result", "setting": "Peptide 3", "result": "no binding (tested: 1500 ng/ml)"}
    ]}
  ]
}
